{
  "source": "paper doi:10.1101/2023.01.09.523336",
  "biological_target": "Cyanophycin synthetase 1 (CphA1) from Tatumella morbirosei DSM 23827 (Tatumella morbirosei DSM 23827)",
  "test": "SEC",
  "data": [
    {"substance": "Cyanophycin synthetase 1 (CphA1) from Tatumella morbirosei DSM 23827 (enzyme)", "values": [
      {"measurement": "stoichiometry N", "result": 4}
    ]}
  ]
}
